In patent publication US8080400B2, “Crystal structure of monoacylglycerol lipase (MGLL)” (Janssen Pharmaceutica N.V., priority 2009, dated 2011):
Changes are numbered by the printed parent chain. Names and notes keep the numbering of the source.

What was measured:
[1] = Thermofluor thermal stability assay (Tm of MGLL protein); assay type: physicochemical; conditions: for Tm (midpoint of the melting transition): 0.05 mg/ml protein, 50 mM Pipes pH 7, 200 mM NaCl, 100 μM 1,8-ANS, 0.001% Tween
Excerpt: (§1) Thermofluor® assays detect small changes in the intrinsic melting temperature of proteins based on binding of ligands. Compounds that interact preferentially with the native form of the protein will increase the Tm, the temperature at which half of the protein is unfolded (Pantoliano et al. 2001). The technique monitors changes in the fluorescent intensity of dyes such as 1-anilinonaphthalene-8-sulfonic acid (1,8-ANS). The fluorescent dyes are quenched in aqueous environments but increase in fluorescence on binding to the hydrophobic core of denatured proteins.
as §1, with “The Thermofluor®” for “Thermofluor®”, “assay is a powerful tool to screen for small molecule inhibitors interacting with a protein's active site or allosteric site. The assay detects” for “assays detect”
Thermofluor® assays were conducted to characterize wt-MGLL (hMGLL 1-303) (SEQ ID NO: 3) and mut-MGLL (hMGLL 1-303 L169S, L176S) and evaluate if the MGLL mutants could be used for high-throughput screening using Thermofluor®. Three microliters of protein at a concentration of 0.05 mg/ml in 50 mM Pipes pH 7, 200 mM NaCl, 100 μM 1,8-ANS, and 0.001% Tween was added to pre-dispensed compound plates. Wells were overlaid with silicone oil (1 μL, Fluka, type DC 200) to prevent evaporation. Final compound concentrations varied from 150 to 0.15 μM. Assay plates were heated at a rate of 1° C./min for all experiments over a temperature range sufficient to measure protein unfolding. Fluorescence was measured by continuous illumination with UV light (Hamamatsu LC6) supplied via fiber optic and filtered through a custom band-pass filter (380-400 nm; >60D cutoff). Fluorescence emission was detected by measuring light intensity using a CCD camera (Sensys, Roper Scientific) filtered to detect emission at 500±25 nm, resulting in simultaneous and independent readings of all 384 wells. One or more images were collected at each temperature, and the sum of the pixel intensity in a given area of the assay plate was recorded vs temperature, and fit to standard equations to yield the Tm.

[2] = molecular target: T1, MGLL (Homo sapiens, UniProt Q99685, L169S/L176S); test: Kinetic analysis: hydrolysis of coumarin arachidonate (C-A) by MGLL constructs; assay type: biochemical; conditions: substrate C-A
T1 construct: His tag followed by a TEV cleavage site (N); made in house; host or cells: Sf9 insect cells (baculovirus)
T1 sequence (Q99685 with tags, fused parts or gaps L169S/L176S): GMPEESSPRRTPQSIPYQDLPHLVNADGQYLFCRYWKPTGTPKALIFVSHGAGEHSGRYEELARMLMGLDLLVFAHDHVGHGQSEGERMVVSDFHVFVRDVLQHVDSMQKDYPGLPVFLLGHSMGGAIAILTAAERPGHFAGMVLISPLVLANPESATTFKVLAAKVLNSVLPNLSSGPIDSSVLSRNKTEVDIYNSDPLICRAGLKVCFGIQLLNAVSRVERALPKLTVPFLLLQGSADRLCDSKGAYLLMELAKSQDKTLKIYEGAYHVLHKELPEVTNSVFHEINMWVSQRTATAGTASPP
Excerpt: A small fluorescent substrate, 4-methyl coumarin butyrate (4MC-B) was used to compare the activity of the engineered mutants to the activity of wt-MGLL (hMGLL 1-303) (SEQ ID NO: 3). The catalytic efficiency (kcat/KM) for the hydrolysis of the 4MC-B was similar for wt-MGLL (hMGLL 1-303) (SEQ ID NO: 3) and all MGLL mutants tested (Table 2). A larger more aliphatic fluorescent substrate, Coumarin Arachidonate (C-A), structurally more closely related to the MGLL natural substrate, 2-AG, was used to compare the activity of wt-MGLL (hMGLL 1-303) (SEQ ID NO: 3) to TEV cleaved mut-MGLL (hMGLL 1-303 L169S, L176S) (SEQ ID NO: 5).
The Michaelis-Menten parameters for the hydrolysis of 4-methylcoumarin butyrate (4MC-B) and coumarin arachidonate (C-A) substrate were determined using 4-5 nM of MGLL in 20 mM Pipes pH 7 and 150 mM NaCl at 37° C. The change in fluorescence due to substrate hydrolysis was monitored using excitation/emission wavelengths of 335/440 in a Safire II instrument from Tecan. The hyperbolic rates versus substrate concentration curves for the hydrolysis of 4MC-B were fit to the Michaelis-Menten equation using Excel.
The apparent kcat/KM ratio for the hydrolysis of C-A was determined at [S]<<KM. […] The kcat/KM values reported are the average from independent values determined from five substrate concentrations ranging from 700 to 40 nM.

[3] = Size exclusion chromatography of protein purified in the absence of detergent (aggregation / monomer); assay type: physicochemical
Description: A pilot purification of wt-MGLL (hMGLL 1-303) (SEQ ID NO: 3), performed in the complete absence of detergent, generated no protein (data not shown). A second purification of wt-MGLL (hMGLL 1-303) (SEQ ID NO: 3) was done with detergent in the lysis buffer only. Frozen cell pellets for wt-MGLL (hMGLL 1-303) (SEQ ID NO: 3) were thawed, resuspended, and lysed in Bugbuster® lysis buffer for 1 hour at 4° C. Bugbuster® lysis buffer is a proprietary lysis buffer from […] that contains detergent. The lysate was clarified by centrifugation at 40,000×g for 1 hr. No detergent was added at this point or during the rest of the purification. From this point forward, the purification protocol and buffers were the same as described below for mut-MGLL. An average of 2.2 mg of wt-MGLL (hMGLL 1-303) (SEQ ID NO: 3) per liter of cell culture was obtained.
Mutant MGLL (mut-MGLL) constructs were purified in the absence of detergent. […] Fractions were analysed by SDS-PAGE. […] Purification yields were determined by Bradford assay using the protein assay kit from BioRad according to manufacturer's instruction with BSA as a standard (Bradford 1976).

[4] = test system: MGLL; test: Kinetic analysis: hydrolysis of 4-methylcoumarin butyrate (4MC-B) by MGLL constructs; assay type: biochemical, human; conditions: substrate 4MC-B; 4-5 nM MGLL, 20 mM Pipes pH 7, 150 mM NaCl, 37° C.; average of 2 or 4 separate assays
Description: The Michaelis-Menten parameters for the hydrolysis of 4-methylcoumarin butyrate (4MC-B) and coumarin arachidonate (C-A) substrate were determined using 4-5 nM of MGLL in 20 mM Pipes pH 7 and 150 mM NaCl at 37° C. […] The hyperbolic rates versus substrate concentration curves for the hydrolysis of 4MC-B were fit to the Michaelis-Menten equation using Excel.

B1: mut-MGLL. 1-303, L169S, L176S: engineered human MGLL 1-303 with cap-domain mutations L169S, L176S; SEQ ID NO: 5 after TEV cleavage (protein)
chain: T1 sequence (Q99685 with tags, fused parts or gaps L169S/L176S)
quality of the Thermofluor melting transition [1]: strong transition | Tm (midpoint of the melting transition) [1]: 56.7 °C | catalytic efficiency for hydrolysis of C-A compared with wt-MGLL [2]: equivalent | monomer [3]: 90%

B2: wt-MGLL.1-303: wild-type human MGLL isoform 2, amino acids 1-303, with N-terminal His tag and TEV site (SEQ ID NO: 3) (protein)
chain: MVDHHHHHHENLYFQGMPEESSPRRTPQSIPYQDLPHLVNADGQYLFCRYWKPTGTPKALIFVSHGAGEHSGRYEELARMLMGLDLLVFAHDHVGHGQSEGERMVVSDFHVFVRDVLQHVDSMQKDYPGLPVFLLGHSMGGAIAILTAAERPGHFAGMVLISPLVLANPESATTFKVLAAKVLNLVLPNLSLGPIDSSVLSRNKTEVDIYNSDPLICRAGLKVCFGIQLLNAVSRVERALPKLTVPFLLLQGSADRLCDSKGAYLLMELAKSQDKTLKIYEGAYHVLHKELPEVTNSVFHEINMWVSQRTATAGTASPP
modifications: N-terminal His tag and TEV site
quality of the Thermofluor melting transition [1]: very poor transition | Tm (midpoint of the melting transition) [1]: 58 °C

B3: mut-MGLL. 1-303, L169S, L176S, K160A: engineered human MGLL 1-303 with L169S, L176S and surface mutation K160A (protein)
chain: B2 chain with K176A, L185S, L192S
Km [4]: 90 µM

B4: mut-MGLL. 1-303, L169S, L176S, K165A: engineered human MGLL 1-303 with L169S, L176S and surface mutation K165A (protein)
chain: B2 chain with K181A, L185S, L192S
Km [4]: 137 µM

B5: mut-MGLL 1-303, L169S, L176S, K226A: engineered human MGLL 1-303 with L169S, L176S and surface mutation K226A (protein)
chain: B2 chain with L185S, L192S, K242A
Km [4]: 110 µM

B6: mut-MGLL 1-303, L169S, L176S, K36A, K226A: engineered human MGLL 1-303 with L169S, L176S and surface mutations K36A, K226A (protein)
chain: B2 chain with K52A, L185S, L192S, K242A
Km [4]: 123 µM
